In assay [1] the target is T1, tumor necrosis factor alpha (TNFα) (human, UniProt P01375 77-233). The experiment in a line: affinity by IC50 ELISA (so named in paragraph 380). On the technique in general: An ELISA detects its analyte on a solid surface through an enzyme-linked reagent.
The target of assay [2] is T1, tumor necrosis factor alpha (TNFα). The assay can be described thus: affinity by IC50 ELISA (so named in paragraph 380). This is another data set of the same source.
For assay [3] the target is unchanged. The assay can be described thus: cell-based or functional assay.
The target is the same in assay [4]. The experiment in a line: affinity by IC50 ELISA (so named in paragraph 380). This is another data set of the same source.
Assay [5] shares this target. The assay can be described thus: affinity by IC50 ELISA (so named in paragraph 380). The source holds these as a separate data set.
Assay [6] has the same target. The experiment in a line: affinity by IC50 ELISA (so named in paragraph 380). The source holds these as a separate data set.
For assay [7] the target is unchanged. The experiment in a line: affinity by IC50 ELISA (so named in paragraph 380). The source holds these as a separate data set.
Assay [8] shares this target. The assay can be described thus: affinity by IC50 ELISA (so named in paragraph 380). This is another data set of the same source.

Where a chain is given by its changes, count along the chain named. In names and notes the source's numbering stands. Several values for one entry are separate records, joined by “and”; a condition that tells them apart may be missing. Equal values may be shown once. Read-outs that look alike come from different tables or passages of the source.

T1 sequence (P01375 77-233 limits assumed): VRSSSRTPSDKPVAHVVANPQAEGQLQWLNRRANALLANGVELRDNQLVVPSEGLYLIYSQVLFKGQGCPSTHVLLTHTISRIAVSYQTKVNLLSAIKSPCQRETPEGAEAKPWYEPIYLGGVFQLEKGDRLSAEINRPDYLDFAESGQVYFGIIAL

B1: MAb 695 (antibody, V domains shown)
VH: EVQLLESGGGLIQPGGSLRLSCAASGFTVSSNYMSWVRQAPGKGLEWVSVIYSGGRTYYADSVKGRFTISRDSSKNTLYLQMNSLRAEDTAVYYCARNYYGSTYDYWGQGTLVTVSS
VL: EIVLTQSPVTLSVPPGERASLSCRASQNIYTAVAWYQQKPGQAPRLLIYGASTRATGIPARFSGGGSGTDYTLTISSLESEDFAVYHCQQYHSWPLTFGGGTKLEIK
notes: also called 121 D11; H1192/L250
Take B1: the Affinity in assay [1] and in assay [2] was 0.6 nM throughout. Moreover, in assay [3], the “IC50, TNFα cytotoxicity assay (WEHI-13VAR cells)” value (from here on “IC50, TNFα cytotoxicity assay”) is 22.9 nM.

B2: MAb 2006 (antibody, V domains shown)
VH: EVQLVESGGGLIQPGGSLRLSCAVSGLNVSRDYMSWVRQAPGKGLEWISVIYRGGATHYADSVKGRFTISRDTSKNTVFLQMSRLKVADTAVYYCARNYYGSTLDYWGQGTLVTVSS
VL: B1 VL with G50N, Y91W
notes: IgG1/kappa, CHO; also called H1831/L459
Regarding B2, the Affinity in assay [4] and in assay [5] was 0.04 nM each time. Besides, the “IC50, TNFα cytotoxicity assay” value in assay [3] worked out at 0.3 nM.

B3: MAb 805 (antibody, V domains shown)
VH: B2 VH with H58M, L104Y
VL: B1 VL
notes: also called 156 H7; H1329/L250
With B3, the Affinity in assay [1] and in assay [2] was 0.6 nM each time. In addition, the “IC50, TNFα cytotoxicity assay” value in assay [3] was 4.8 nM and 10.3 nM.

B4: MAb 1042 (antibody, V domains shown)
VH: B1 VH with Y104F
VL: B1 VL with Y91W
notes: IgG1/kappa, CHO; also called H1482/L332
With B4, the Affinity in assay [6] and in assay [4] was 0.07 nM each time.

B5: MAb 1029 (antibody, V domains shown)
VH: B1 VH with N98L
VL: B1 VL
notes: IgG1/kappa, CHO; also called H1479/L250
For B5, the Affinity in assay [7] and in assay [4] was 0.36 nM in each case.

B6: MAb 1038 (antibody, V domains shown)
VH: B1 VH with Y104M
VL: B1 VL
notes: IgG1/kappa, CHO; also called H1483/L250
As for B6, the Affinity in assay [7] and in assay [4] was 0.25 nM in each case.

B7: MAb 698 (antibody, V domains shown)
VH: B1 VH with S30G, S31N, G54A, R56S, T68I, S73N, N76D, L78V, A87V, E88D
VL: B1 VL
notes: also called 131 E11; H1272/L250
As to B7, the Affinity in assay [1] and in assay [2] was 2.3 nM throughout. Further, in assay [3], the “IC50, TNFα cytotoxicity assay” value came to 152 nM.

B8: MAb 1067 (antibody, V domains shown)
VH: B1 VH with Y104L
VL: B1 VL with Y91W
notes: IgG1/kappa, CHO; also called H1487/L332
On to B8, for which the Affinity in assay [6] and in assay [4] was 0.12 nM throughout.

B9: MAb 1028 (antibody, V domains shown)
VH: B1 VH with N98T
VL: B1 VL
notes: IgG1/kappa, CHO; also called H1478/L250
On to B9, for which the Affinity in assay [7] and in assay [4] was 0.32 nM throughout.

B10: MAb 1210 (antibody, V domains shown)
VH: B1 VH with Y104V
VL: B1 VL with Y91W
notes: IgG1/kappa, CHO; also called H1557/L332
As to B10, the Affinity in assay [6] and in assay [4] was 0.14 nM in each case.

B11: MAb 892 (antibody, V domains shown)
VH: B1 VH with T103L
VL: B1 VL
notes: IgG1/kappa, CHO; also called H1388/L250
Turning to B11, the Affinity in assay [7] and in assay [4] was 0.43 nM throughout.

B12: MAb 1131 (antibody, V domains shown)
VH: B1 VH with Y104H
VL: B1 VL with Y91W
notes: IgG1/kappa, CHO; also called H1518/L332
For the molecule B12, the Affinity in assay [6] and in assay [4] was 0.13 nM in each case.

B13: MAb 714 (antibody, V domains shown)
VH: B1 VH with L5V, I12V, R19K, S53R, R56S, S73I, K75R, T77M, L78V
VL: B1 VL
notes: also called 141 A10; H1277/L250
For the molecule B13, the Affinity in assay [1] and in assay [2] was 0.4 nM throughout. The “IC50, TNFα cytotoxicity assay” value in assay [3] was 7.75 nM.

B14: MAb 1007 (antibody, V domains shown)
VH: B2 VH with H58M, L104Y
VL: B1 VL with Y91W
For B14, the “IC50, TNFα cytotoxicity assay” value in assay [3] was found to be 12.2 nM.

B15: MAb 715 (antibody, V domains shown)
VH: B1 VH with S31N, E46Q, S49A, R56S, A60P, V63M, S73N
VL: B1 VL
notes: also called 141 F2; H1278/L250
B15: the Affinity in assay [1] and in assay [2] was 0.6 nM each time. For the same molecule, the “IC50, TNFα cytotoxicity assay” value in assay [3] turned out to be 21.4 nM.

B16: MAb 1714 (antibody, V domains shown)
VH: B2 VH with H58M, L104F
VL: B1 VL with Y91W
notes: IgG1/kappa, CHO; also called H1678/L332
Consider B16, for which the Affinity in assay [8] and in assay [4] was 0.16 nM each time. Moreover, the “IC50, TNFα cytotoxicity assay” value in assay [3] worked out at 1.3 nM.

B17: MAb 1043 (antibody, V domains shown)
VH: B1 VH with Y104M
VL: B1 VL with Y91W
notes: IgG1/kappa, CHO; also called H1483/L332
As for B17, the Affinity in assay [6] and in assay [4] was 0.31 nM in each case.

B18: MAb 1989 (antibody, V domains shown)
VH: B2 VH with G54V, H58M
VL: B1 VL with G50N, Y91W
notes: IgG1/kappa, CHO; also called H1814/L459
Consider B18, for which the Affinity in assay [4] and in assay [5] was 0.05 nM each time. Further, in assay [3], the “IC50, TNFα cytotoxicity assay” value stood at 0.2 nM.

B19: MAb 1999 (antibody, V domains shown)
VH: B2 VH with A56I, H58M
VL: B1 VL with G50N, Y91W
notes: IgG1/kappa, CHO; also called H1824/L459
Regarding B19, the Affinity in assay [4] and in assay [5] was 0.04 nM throughout. In addition, in assay [3], the “IC50, TNFα cytotoxicity assay” value came out at 0.3 nM.

B20: MAb 1037 (antibody, V domains shown)
VH: B1 VH with Y104F
VL: B1 VL
notes: IgG1/kappa, CHO; also called H1482/L250
As to B20, the Affinity in assay [7] and in assay [4] was 0.12 nM each time.

B21: MAb 1132 (antibody, V domains shown)
VH: B1 VH with Y104H
VL: B1 VL
notes: IgG1/kappa, CHO; also called H1518/L250
Take B21: the Affinity in assay [7] and in assay [4] was 0.1 nM each time.

B22: MAb 716 (antibody, V domains shown)
VH: B1 VH with R56S, S73N
VL: B1 VL
notes: also called 142 F2; H1280/L250
Turning to B22, the Affinity in assay [1] and in assay [2] was over 10 nM in each case. The “IC50, TNFα cytotoxicity assay” value in assay [3] was found to be 31.4 nM.

B23: MAb 1066 (antibody, V domains shown)
VH: B1 VH with Y104L
VL: B1 VL
notes: IgG1/kappa, CHO; also called H1487/L250
Regarding B23, the Affinity in assay [7] and in assay [4] was 0.13 nM each time.

B24: MAb 699 (antibody, V domains shown)
VH: B1 VH with R56S, S73N, S74A, L78V, A87S
VL: B1 VL
notes: also called 183 E9; H1273/L250
On to B24, for which the Affinity in assay [1] and in assay [2] was 7.3 nM each time. The “IC50, TNFα cytotoxicity assay” value in assay [3] amounted to 350 nM.

B25: MAb 874 (antibody, V domains shown)
VH: B1 VH with Y100A
VL: B1 VL
notes: IgG1/kappa, CHO; also called H1373/L250
For B25, the Affinity in assay [7] and in assay [4] was 0.56 nM each time.

B26: MAb 1036 (antibody, V domains shown)
VH: B1 VH with N98T
VL: B1 VL with Y91W
notes: IgG1/kappa, CHO; also called H1478/L332
For the molecule B26, the Affinity in assay [6] and in assay [4] was 0.18 nM in each case.

B27: MAb 696 (antibody, V domains shown)
VH: B1 VH with L5V
VL: B1 VL
notes: also called 121 E1B; H1193/L250
In the case of B27, the Affinity in assay [1] and in assay [2] was 0.6 nM throughout.

B28: MAb 2019 (antibody, V domains shown)
VH: B2 VH with A56V, H58M
VL: B1 VL with G50N, Y91W
notes: IgG1/kappa, CHO; also called H1844/L459
Turning to B28, the Affinity in assay [4] and in assay [5] was 0.04 nM throughout. The “IC50, TNFα cytotoxicity assay” value in assay [3] is 0.3 nM.

B29: MAb 1988 (antibody, V domains shown)
VH: B2 VH with G54I, H58M
VL: B1 VL with G50N, Y91W
notes: IgG1/kappa, CHO; also called H1813/L459
In the case of B29, the Affinity in assay [4] and in assay [5] was 0.04 nM throughout. Moreover, the “IC50, TNFα cytotoxicity assay” value in assay [3] was 0.2 nM.
